According to publication doi:10.1101/2025.03.06.641801, “DMBT1 promotes SARS-CoV-2 infection and its SRCR-derived peptide inhibits SARS-CoV-2 infection” (bioRxiv, 2025):

Target: the molecule itself
Assay: reverse-phase HPLC with TOF mass detection; peptide 7 of an earlier (old) synthetic batch in PBS; Agilent HPLC Infinity II 1290 with TOF 6230, 5-65% acetonitrile/water with 0.1% TFA, 40 C

B1: peptide 7 (CQGRVEVLYRGSWGTV), SRCR-domain-derived peptide of DMBT1 (peptide)
peptide: CQGRVEVLYRGSWGTV
notes: Free N-terminal cysteine; earlier synthetic batches formed disulfide-linked homodimers in PBS; also called Pep7
  binding result: binds
